Target: HLA-DQ8 molecule (DQA1*03:01-DQB1*03:02) (human)
Experiment: ProImmune REVEAL MHC-peptide binding assay

- fold affinity against the reference peptide (T1D auto-antigen …): 41 fold
Binder: EALYLVCGNAVEVLK [insulin-derived 15-mer …]

— publication doi:10.1101/2025.09.02.673809
